{
  "source": "FireProtDB (doi:10.1021/bi050142b)",
  "conditions": "Kitasatospora aureofaciens, 30 °C, GdnHCl, reversible: yes (>98%), whole UniProt chain shown",
  "data": [
    {"protein": "Guanyl-specific ribonuclease Sa wild type, P05798 (protein) DVSGTVCLSALPPEATDTLNLIASDGPFPYSQDGVVFQNRESVLPTQSYGYYHEYTVITPGARTRGTRRIITGEATQEDYYTGDHYATFSLIDQTC", "values": [
      {"measurement": "denaturant m value", "setting": "pH 5.5, CD, None", "result": 2.32, "unit": "kcal/mol/M"},
      {"measurement": "unfolding free energy", "setting": "pH 5.5, CD, None", "result": 31.4, "unit": "kJ/mol"},
      {"measurement": "unfolding free energy", "setting": "pH 5.5, NMR hydrogen exchange", "result": 11.8, "unit": "kJ/mol"},
      {"measurement": "denaturant m value", "setting": "pH 5.9, CD, None", "result": 2.3, "unit": "kcal/mol/M"},
      {"measurement": "unfolding free energy", "setting": "pH 5.9, CD, None", "result": 28, "unit": "kJ/mol"}
    ]}
  ]
}
